Experimental data from patent publication US20250262210A1 (TRUSTEES OF COLUMBIA UNIVERSITY IN THE CITY OF NEW YORK, published 2025).

Molecular target: T1, ELP1 (human, UniProt O95163 1-1332)
T1 sequence (looked up): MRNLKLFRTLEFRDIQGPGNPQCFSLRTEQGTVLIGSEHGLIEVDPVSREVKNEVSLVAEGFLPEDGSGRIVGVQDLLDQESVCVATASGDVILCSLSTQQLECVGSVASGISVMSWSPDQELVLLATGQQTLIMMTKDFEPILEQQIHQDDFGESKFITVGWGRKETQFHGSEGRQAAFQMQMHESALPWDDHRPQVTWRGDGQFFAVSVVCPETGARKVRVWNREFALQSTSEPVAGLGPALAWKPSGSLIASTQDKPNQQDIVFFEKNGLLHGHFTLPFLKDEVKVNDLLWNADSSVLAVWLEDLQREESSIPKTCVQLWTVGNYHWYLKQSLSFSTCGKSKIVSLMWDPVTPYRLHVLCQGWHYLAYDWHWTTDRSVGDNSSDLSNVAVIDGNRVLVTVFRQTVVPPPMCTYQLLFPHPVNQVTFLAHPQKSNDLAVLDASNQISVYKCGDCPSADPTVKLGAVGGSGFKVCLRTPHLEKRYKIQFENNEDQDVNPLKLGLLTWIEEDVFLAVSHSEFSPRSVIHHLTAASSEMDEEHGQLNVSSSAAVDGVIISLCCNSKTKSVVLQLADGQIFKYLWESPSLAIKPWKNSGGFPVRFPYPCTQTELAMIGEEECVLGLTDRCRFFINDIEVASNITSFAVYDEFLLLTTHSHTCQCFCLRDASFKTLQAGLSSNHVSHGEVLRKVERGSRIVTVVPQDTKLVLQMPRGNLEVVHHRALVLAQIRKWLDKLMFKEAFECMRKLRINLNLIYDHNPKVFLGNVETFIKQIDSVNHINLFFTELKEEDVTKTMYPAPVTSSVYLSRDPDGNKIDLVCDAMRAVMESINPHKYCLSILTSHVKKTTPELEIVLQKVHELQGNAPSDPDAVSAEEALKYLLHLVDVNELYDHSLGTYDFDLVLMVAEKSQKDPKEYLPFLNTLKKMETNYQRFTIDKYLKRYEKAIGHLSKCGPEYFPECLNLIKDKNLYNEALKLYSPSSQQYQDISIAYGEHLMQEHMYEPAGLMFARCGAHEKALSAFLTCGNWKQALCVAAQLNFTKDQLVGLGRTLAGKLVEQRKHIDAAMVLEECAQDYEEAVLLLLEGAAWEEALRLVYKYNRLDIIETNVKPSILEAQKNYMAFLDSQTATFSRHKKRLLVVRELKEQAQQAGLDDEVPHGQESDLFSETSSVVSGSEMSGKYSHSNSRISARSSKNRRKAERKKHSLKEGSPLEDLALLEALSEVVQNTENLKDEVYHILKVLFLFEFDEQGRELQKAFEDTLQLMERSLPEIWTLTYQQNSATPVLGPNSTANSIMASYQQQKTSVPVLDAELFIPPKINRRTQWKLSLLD
Experiment: IP/MS, LZTR1 wild type-FLAG, U87
In short: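 Extracted peptides in 3% acetonitrile/0.1% formic acid ran on a 50 cm C18 column into an Orbitrap Fusion, with MaxQuant identification and spectral counting.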

binding result: binds
B1: LZTR1-FLAG (other, human, UniProt Q8N653 1-840, looked up)
chain: MAGPGSTGGQIGAAALAGGARSKVAPSVDFDHSCSDSVEYLTLNFGPFETVHRWRRLPPCDEFVGARRSKHTVVAYKDAIYVFGGDNGKTMLNDLLRFDVKDCSWCRAFTTGTPPAPRYHHSAVVYGSSMFVFGGYTGDIYSNSNLKNKNDLFEYKFATGQWTEWKIEGRLPVARSAHGATVYSDKLWIFAGYDGNARLNDMWTIGLQDRELTCWEEVAQSGEIPPSCCNFPVAVCRDKMFVFSGQSGAKITNNLFQFEFKDKTWTRIPTEHLLRGSPPPPQRRYGHTMVAFDRHLYVFGGAADNTLPNELHCYDVDFQTWEVVQPSSDSEVGGAEVPERACASEEVPTLTYEERVGFKKSRDVFGLDFGTTSAKQPTQPASELPSGRLFHAAAVISDAMYIFGGTVDNNIRSGEMYRFQFSCYPKCTLHEDYGRLWESRQFCDVEFVLGEKEECVQGHVAIVTARSRWLRRKITQARERLAQKLEQEAAPVPREAPGVAAGGARPPLLHVAIREAEARPFEVLMQFLYTDKIKYPRKGHVEDVLLIMDVYKLALSFQLCRLEQLCRQYIEASVDLQNVLVVCESAARLQLSQLKEHCLNFVVKESHFNQVIMMKEFERLSSPLIVEIVRRKQQPPPRTPLDQPVDIGTSLIQDMKAYLEGAGAEFCDITLLLDGHPRPAHKAILAARSSYFEAMFRSFMPEDGQVNISIGEMVPSRQAFESMLRYIYYGEVNMPPEDSLYLFAAPYYYGFYNNRLQAYCKQNLEMNVTVQNVLQILEAADKTQALDMKRHCLHIIVHQFTKVSKLPTLRSLSQQLLLDIIDSLASHISDKQCAELGADI
notes: Expressed in HEK 293T, HeLa or U87 cells; used as cell lysate; also called LZTR1 wild type-FLAG; LZTR1 WT; not shown: FLAG tag at the C-terminus
